Results on two molecules are retold here after patent publication US20250002600A1 (Genmab, published 2025).

Assay [1] concerns the target T1, human FcγRIa transiently expressed on CHO-S cells (human, UniProt P12314 16-374).
T1 construct: whole, on cells; also called cell surface expressed FcγRIa
Briefly: flow cytometry on CHO-S cells transiently expressing human FcγRIa, PE-conjugated goat anti-human IgG F(ab')2, % PE+ cells.
Experimental: Cells were centrifuged, supernatant was removed, and cells (30,000 cells in 50 μL) were incubated with 50 μL of the antibody dilutions for 30 min at 4° C. Cells were washed twice with GMB FACS buffer and incubated with 50 μL secondary antibody (PE-conjugated goat-anti-human IgG F(ab′)2; 1:500) for 30 min at 4° C., protected from light. Cells were washed twice with GMB FACS buffer and resuspended in GMB FACS buffer supplemented with 2 mM EDTA and DAPI viability marker (1:5,000). Antibody binding to viable cells was analyzed by flow cytometry on an Intellicyt iQue PLUS Screener (Intellicyt Corporation) using FlowJo software by gating on PE-positive, DAPI-negative cells. Binding curves were analyzed using non-linear regression analysis (four-parameter dose-response curve fits) in GraphPad Prism.

In assay [2] the target is human PD-1 expressed on reporter Jurkat T cells (PD-1 Effector Cells) (human, UniProt Q15116 25-288). Briefly: cell-based or functional assay.

Values joined by “and” are separate entries in the source; they are usually repeats but may differ in a detail not shown here. Equal entries are not always repeated.

human PD-1 expressed on reporter Jurkat T cells (PD-1 Effector Cells), sequence (Q15116 25-288): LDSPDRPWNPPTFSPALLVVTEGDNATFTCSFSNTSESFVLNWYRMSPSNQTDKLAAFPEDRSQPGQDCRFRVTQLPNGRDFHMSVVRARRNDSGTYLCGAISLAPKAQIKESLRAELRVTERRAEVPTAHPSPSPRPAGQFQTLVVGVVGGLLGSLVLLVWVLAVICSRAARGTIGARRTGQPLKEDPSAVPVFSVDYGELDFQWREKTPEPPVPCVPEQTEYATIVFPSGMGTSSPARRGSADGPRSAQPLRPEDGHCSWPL
T1 sequence (P12314 16-374): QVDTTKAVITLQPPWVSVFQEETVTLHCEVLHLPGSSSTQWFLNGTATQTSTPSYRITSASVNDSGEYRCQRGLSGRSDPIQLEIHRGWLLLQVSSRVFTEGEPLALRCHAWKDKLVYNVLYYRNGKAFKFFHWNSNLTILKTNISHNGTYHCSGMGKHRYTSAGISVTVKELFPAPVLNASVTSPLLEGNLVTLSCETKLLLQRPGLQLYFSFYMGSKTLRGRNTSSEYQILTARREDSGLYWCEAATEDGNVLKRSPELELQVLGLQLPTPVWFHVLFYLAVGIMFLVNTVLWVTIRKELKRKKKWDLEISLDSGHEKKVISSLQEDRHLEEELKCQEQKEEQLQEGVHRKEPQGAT

B1: IgG1-ctrl (antibody)
heavy: not shown
light: EIVLTQSPGTLSLSPGERATFSCRSSHSIRSRRVAWYQHKPGQAPRLVIHGVSNRASGISDRFSGSGSGTDFTLTITRVEPEDFALYYCQVYGASSYTFGQGTKLERKRTVAAPSVFIFPPSDEQLKSGTASVVCLLNNFYPREAKVQWKVDNALQSGNSQESVTEQDSKDSTYSLSSTLTLSKADYEKHKVYACEVTHQGLSSPVTKSFNRGEC
notes: also called IgG1-b12 with wild-type Fc region
For B1, the EC50 (read off the curve) (commonly the concentration giving half of the maximal effect) in assay [1] is around 0.01 µg/mL.

B2: IgG1-PD1 (antibody)
heavy: QVQLVESGGGLVQPGTSLRLSCSVSGFSLYSYNMGWVRQAPGKGLEYIGIISGGTIGHYASWAKGRFTISRDTSKTTLYLQMNSLTTEDTATYFCARAFYDDYDYNVWGPGTLVTVSSASTKGPSVFPLAPSSKSTSGGTAALGCLVKDYFPEPVTVSWNSGALTSGVHTFPAVLQSSGLYSLSSVVTVPSSSLGTQTYICNVNHKPSNTKVDKRVEPKSCDKTHTCPPCPAPEFERGPSVFLFPPKPKDTLMISRTPEVTCVVVDVSHEDPEVKFNWYVDGVEVHNAKTKPREEQYNSTYRVVSVLTVLHQDWLNGKEYKCKVSNKALPAPIEKTISKAKGQPREPQVYTLPPSREEMTKNQVSLTCLVKGFYPSDIAVEWESNGQPENNYKTTPPVLDSDGSFFLYSKLTVDKSRWQQGNVFSCSVMHEALHNHYTQKSLSLSPG
light: AIQLTQSPSSLSASVGGTVTITCQSSQSVYGNNQLSWYQQKPGQPPKLLIYQASKLETGVPSRFRGSGSGTQFTLTISSLQSEDFATYYCAGGYSSSSDTTFGGGTEVVVKRTVAAPSVFIFPPSDEQLKSGTASVVCLLNNFYPREAKVQWKVDNALQSGNSQESVTEQDSKDSTYSLSSTLTLSKADYEKHKVYACEVTHQGLSSPVTKSFNRGEC
Turning to B2, the “EC50 of PD-1/PD-L1 checkpoint blockade (luminescence, reporter assay)” value in assay [2] is 0.165 µg/mL and 1.12 nM.
